assay: yeast display, Sf9 membrane polyspecificity reagent, FACS + sequencing; frameworks hold sequencing errors
Procedure, shortened: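 Genes from sorted yeast were amplified by colony PCR, read by MiSeq 2 × 250 sequencing and filtered on CDR length. These cells carried a synthetic nanobody library in Saccharomyces cerevisiae BJ5465 and were sorted by FACS into low and high (top ~1%) gates on anti-HA and streptavidin fluorescence. Polyreactivity is labelled according to the gate of origin.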

Sequence	polyreactivity (PSR sort gate)
QVQLVESRGGLVQAGGSLRLSCAASGRTFSGNAMGWYRQAPGKERELVAAITSVGTTNYADSVKGRFTISRDNANNTVYLQMNSLKPEHTAVYYCAADPPSDYYKYDYWGHGTQVTVSS	low polyreactivity
QVQLVESGGGLVQAGGSLRLSCAASGRIFTYYAMGWYRQAPGKERELVAGISGSGTSTYYADSVKGRFTISRDNAKNTVYLQMNSLKPEDTAVYYCAAIRRQNGLWDYYYWGQGTQVTVSS	low polyreactivity
QVQLVESGGGLVQAGGSLRLSCAASGRTIWTYVMGWYRQAPGKERELVAAISRSGSSTYYADSVKGRFTISRDNAKNTVYLQMNSLKPEDTAVYYCNKVDGTTLDDHYMDYWGQGTQVTVSS	low polyreactivity
QVQLVESGGGLVQAGGSLRLSCAASGSIFRYYAMGWYRQAHGKERELVAVITSSGTSTYYADSVKGRFTISRDNAKNTVYLQMNSRKPEDTAVDYCAVYPIIYGRMDSWGQGTQVTVSS	low polyreactivity
QVQLVESGGGLVQAGGSLRLSCAASGSIFGYYAMGWYRQAPGKERELVAAISGSGGSTYYADSVKGRFTISRDNAKNTVYLQMNSLKPEDTAVYYCAAAYHGRHYYWGQGTQVTVSS	high polyreactivity
QDQLVESGGGLVQAGGSLRLSCAASGSIFDRNAMGWYRQAPGKERELVAAITSRGGRTYYADSVKGRFTISRDNAKNTVYLQMNSLKPEDTAVYYCNAVYSQSGYFYRFDYWGQGTQVTVSS	high polyreactivity
QVQLVESGGGIVQEGGSLRLSCAASGSTFRDYAMGWYRQAPGKERELVAAISSRGATTYYADSVKGRFTISRDNAKNTVYLQMNSLKPEDTAVYYCNARQRRNPGGYGYWGQVTQVTVSS	high polyreactivity
QVQLVESGGGLVQAGGSLRLSCAASGFIFATNAMGWYRQAPGKEREFVAAITSGGSTYYADSVKGRFTISRDNAKNTVYLQMNSLKPEDTAVYYCNARTYSRVTRQTYRYRPYDYWGQGTQVTVSS	high polyreactivity
QVQLQESGSGLVQAGGSLRLSCAASGNISHYNDMGWYRQAPGKEREPVATINSGSITYYADSVKGRFTISRDNAKNTVYLQMNSLKPEDTAVYYCAVKQHGYFYLDYWGQGTQVTVSS	high polyreactivity
QVQLVESGGGLVQAGGSLRISCAASGRTLFNKARGRYRQAPGKERELVAAINWSGTSTYYADSVKGRFTISRDNAKNTVYLQMNSLKPEDTAVYYCAARYSTVSTRRKPYNYWGQGTQVTVSS	high polyreactivity
QVQLVESGGGLVQAGGSLRLSCAASGSTFYYYARGWYRQAPGKERELVATITSGASTNYADSVKGRFTISRDNAKNTVYLQMNSLKPEDTAVYYCNAVSLTSYLPWSSYDYWGQGTQVTVSS	low polyreactivity
QVQLVESGGGLVQAGGSLRLSCAASGRIFSYNTMGWYRQAPGKERELVAAISWSGGSTSYADSVKGRFTISRDNAKNTVYLQMNSLKPEDTAVYYCATGSKRNPFYRGNYWGQGTQVTVSS	low polyreactivity
KVQLGVSGGGLVQAGGSLRLSCASSGFIFRYYAMGWSRQAPGKERELVAGISSGGSTYYADSVKGRFTISRDNAKNTVYLKMNSLKPEDTAVYYCNAVYSSGVDGSEGFDYWGQGTQVTVSS	low polyreactivity
QVQLVESGGGLVQAGGSLRLSCAASGRIFVINVMGWSRQAPGKERELVATITWSVGSTYYADSVKGRFTISRDTAKNTVYLQMNSLKPEDTAVYYCAAASSFKFDYWGQGTQVTVSS	low polyreactivity
QVQLVESGGGLVQAGGSLRLSCAASGRTFFGYAMGWYRQAPGKERELVATISGSGASTYYADSVKGRFTISRDNAKNTVYLQMNSLKPEDTAVYYCAARYVTTRHSRYYYWGQGTQVTVSS	high polyreactivity
QVQLVESGGGLVQAGGSLRLRCAASGSTFYWNAMGWYRQAPGKERELVATITYSGGSTYYADSVKGRFTISRDNAKNTVYLQMNSLKPEDTAVYYCATGGLTWHYTYRGYYWGQGTQVTVSS	low polyreactivity
QVQLVESGGGLVQAGGSLRLSCAASGGIFKVYGMRWYRQAPGKERELVAAISWTTGGTYYADSVKGRFTISRDNAKITVYLQMNSLKQEDTAVYYCAAEYADSWSAFDWNYYYWGQGTQVTVSS	high polyreactivity
